We go through seven molecules from article PMC5609118, “Purification and Characterization of Latent Polyphenol Oxidase from Apricot (Prunus armeniaca L.)” (Journal of Agricultural and Food Chemistry, 2017).

The target in series [1] is T1, L-PaPPO (latent polyphenol oxidase from apricot) (Prunus armeniaca, UniProt O81103).
T1 construct: gene PPO; native, purified from fruit; latent mature form Asp102-Ser597 (496 residues), transit peptide removed; 63 kDa by SDS-PAGE; no tag
The experiment in a line: inhibition of catechol oxidation, absorbance. It counts as biochemical. As to conditions: for activity at 1000 µM: read-out: 1 mM. The text has this: inhibition of catechol oxidation, absorbance on L-PaPPO (latent polyphenol oxidase from apricot)

The target in series [2] is T1, L-PaPPO (latent polyphenol oxidase from apricot). In words: quinone formation, absorbance, microplate reader; nonlinear regression. It counts as biochemical. The note with it: 50 mM sodium citrate pH 4.5, 25 °C, no SDS; triphenol substrate; latent enzyme activated in the assay. The text has this:
(§1) quinone formation, absorbance, microplate reader; nonlinear regression on L-PaPPO (latent polyphenol oxidase from apricot)

For series [3], the target named is T2, A-PaPPO (activated polyphenol oxidase from apricot) (Prunus armeniaca, UniProt O81103).
T2 construct: gene PPO; native, from fruit; C-terminal domain lost during storage at 4 °C; 38 kDa by SDS-PAGE
T2 sequence (O81103 102-429): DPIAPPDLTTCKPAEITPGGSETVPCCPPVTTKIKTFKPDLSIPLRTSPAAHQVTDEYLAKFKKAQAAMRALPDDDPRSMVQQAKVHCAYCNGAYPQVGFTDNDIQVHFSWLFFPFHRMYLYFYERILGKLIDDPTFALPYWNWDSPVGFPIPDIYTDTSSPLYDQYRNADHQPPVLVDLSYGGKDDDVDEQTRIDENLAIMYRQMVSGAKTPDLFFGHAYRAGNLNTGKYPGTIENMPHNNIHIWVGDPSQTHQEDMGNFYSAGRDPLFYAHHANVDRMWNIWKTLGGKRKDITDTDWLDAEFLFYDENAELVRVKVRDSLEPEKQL
In words: in-gel activity staining, partially denaturing SDS-PAGE. It counts as biochemical. As to conditions: 0.2 M catechol, 50 mM sodium citrate pH 6.5, 25 °C.

Substrate in the series “purified protein”: O=C(/C=C/c1ccc(O)c(O)c1)O[C@@H]1C[C@](O)(C(=O)O)C[C@@H](O)[C@H]1O
In words: purified protein. As to conditions: 50 mM sodium citrate pH 4.5, 25 °C, no SDS, diphenolase, latent enzyme activated in the assay.

Substrate in series [4]: Cc1ccc(O)c(O)c1
The experiment in a line: quinone formation, absorbance, microplate reader; nonlinear regression. The note with it: 50 mM sodium citrate pH 4.5, 25 °C, no SDS, diphenolase, latent enzyme activated in the assay. It counts as biochemical, Prunus armeniaca.
Source text: as §1

Substrate in series [5]: Oc1ccccc1O
The description is as above. The format is biochemical, Prunus armeniaca. The note with it: 50 mM sodium citrate pH 4.5, 25 °C, no SDS, diphenolase, latent enzyme activated in the assay.
Source text: as §1

In the case of `O=C(O)c1ccccc1` [benzoic acid], the activity at 1000 µM in series [1] turned out to be 41 ± 1.2%.

On to `O=C(O)CCC(=O)O` [succinic acid], for which, in series [1] (read-out: 10 mM), the activity at 10000 µM came out at 89.1 ± 0.53%.

Regarding `CCCCCCc1ccc(O)cc1O` [4-hexylresorcinol], in series [1] (read-out: 0.1 mM), the activity at 100 µM turned out to be 34 ± 1.4%.

Consider `Oc1cccc(O)c1O` [pyrogallol], for which the Km (as a rule, the concentration of substrate that gives half-maximal velocity) in series [2] stood at 11 ± 1.5 mM.

Consider `O=c1cc(CO)occ1O` [kojic acid], for which, in series [1], the activity at 1000 µM came to 28 ± 1.1%.

In the case of `Oc1ccccc1O` [catechol], the “in-gel activity staining, partially denaturing SDS-PAGE” value in series [3] is reported as “single band was detected by in-gel enzymatic activity staining with catechol as substrate”.

B1: L-PaPPO (latent polyphenol oxidase from apricot) (Prunus armeniaca) (protein)
chain: DPIAPPDLTTCKPAEITPGGSETVPCCPPVTTKIKTFKPDLSIPLRTSPAAHQVTDEYLAKFKKAQAAMRALPDDDPRSMVQQAKVHCAYCNGAYPQVGFTDNDIQVHFSWLFFPFHRMYLYFYERILGKLIDDPTFALPYWNWDSPVGFPIPDIYTDTSSPLYDQYRNADHQPPVLVDLSYGGKDDDVDEQTRIDENLAIMYRQMVSGAKTPDLFFGHAYRAGNLNTGKYPGTIENMPHNNIHIWVGDPSQTHQEDMGNFYSAGRDPLFYAHHANVDRMWNIWKTLGGKRKDITDTDWLDAEFLFYDENAELVRVKVRDSLEPEKQLRYNYEPVSLPWLFTKPTARKTKNKTKAKVAATQLTSKFPATLVEVTTVEVARPKPRKRSKKEKVDEEELLIIKDIEFEGTEAVKFDVFINDDAESLSRRDKSEFAGSFVHVPQGKTTKAKTKTNLKLGITDLLEDLGAEDDSSVLVTLVPRVSNSPITIGGFKIEYSS
notes: native, purified from fruit; latent mature form Asp102-Ser597 (496 residues), transit peptide removed; 63 kDa by SDS-PAGE; no tag
On to B1, for which, in the series “purified protein”, the Km is 2.7 ± 0.16 mM; the catalytic constant (kcat) – broadly, the number of substrate molecules converted per active site and unit of time at saturation – was found to be 1400 s⁻¹; the kcat/Km (as a rule, the turnover number divided by the Michaelis constant) stood at 500000 M⁻¹ s⁻¹. In series [4], the Michaelis-Menten constant (Km) came out at 2.0 ± 0.26 mM, the turnover number (kcat) came out at 700 ± 110 s⁻¹ and the kcat/Km was 340000 ± 70000 M⁻¹ s⁻¹. Further, in series [5], the Km was 5.3 ± 0.60 mM, the kcat was 210 ± 30 s⁻¹ and the kcat/Km worked out at 40000 ± 10000 M⁻¹ s⁻¹.
